Experimental data taken from the supplement of paper PMC6379048.

Legend:
Assay in all cases: Kd (EC50 corrected by depletion factor)
[1] = target: T1, WDR33 (UniProt Q9C0J8)
T1 sequence: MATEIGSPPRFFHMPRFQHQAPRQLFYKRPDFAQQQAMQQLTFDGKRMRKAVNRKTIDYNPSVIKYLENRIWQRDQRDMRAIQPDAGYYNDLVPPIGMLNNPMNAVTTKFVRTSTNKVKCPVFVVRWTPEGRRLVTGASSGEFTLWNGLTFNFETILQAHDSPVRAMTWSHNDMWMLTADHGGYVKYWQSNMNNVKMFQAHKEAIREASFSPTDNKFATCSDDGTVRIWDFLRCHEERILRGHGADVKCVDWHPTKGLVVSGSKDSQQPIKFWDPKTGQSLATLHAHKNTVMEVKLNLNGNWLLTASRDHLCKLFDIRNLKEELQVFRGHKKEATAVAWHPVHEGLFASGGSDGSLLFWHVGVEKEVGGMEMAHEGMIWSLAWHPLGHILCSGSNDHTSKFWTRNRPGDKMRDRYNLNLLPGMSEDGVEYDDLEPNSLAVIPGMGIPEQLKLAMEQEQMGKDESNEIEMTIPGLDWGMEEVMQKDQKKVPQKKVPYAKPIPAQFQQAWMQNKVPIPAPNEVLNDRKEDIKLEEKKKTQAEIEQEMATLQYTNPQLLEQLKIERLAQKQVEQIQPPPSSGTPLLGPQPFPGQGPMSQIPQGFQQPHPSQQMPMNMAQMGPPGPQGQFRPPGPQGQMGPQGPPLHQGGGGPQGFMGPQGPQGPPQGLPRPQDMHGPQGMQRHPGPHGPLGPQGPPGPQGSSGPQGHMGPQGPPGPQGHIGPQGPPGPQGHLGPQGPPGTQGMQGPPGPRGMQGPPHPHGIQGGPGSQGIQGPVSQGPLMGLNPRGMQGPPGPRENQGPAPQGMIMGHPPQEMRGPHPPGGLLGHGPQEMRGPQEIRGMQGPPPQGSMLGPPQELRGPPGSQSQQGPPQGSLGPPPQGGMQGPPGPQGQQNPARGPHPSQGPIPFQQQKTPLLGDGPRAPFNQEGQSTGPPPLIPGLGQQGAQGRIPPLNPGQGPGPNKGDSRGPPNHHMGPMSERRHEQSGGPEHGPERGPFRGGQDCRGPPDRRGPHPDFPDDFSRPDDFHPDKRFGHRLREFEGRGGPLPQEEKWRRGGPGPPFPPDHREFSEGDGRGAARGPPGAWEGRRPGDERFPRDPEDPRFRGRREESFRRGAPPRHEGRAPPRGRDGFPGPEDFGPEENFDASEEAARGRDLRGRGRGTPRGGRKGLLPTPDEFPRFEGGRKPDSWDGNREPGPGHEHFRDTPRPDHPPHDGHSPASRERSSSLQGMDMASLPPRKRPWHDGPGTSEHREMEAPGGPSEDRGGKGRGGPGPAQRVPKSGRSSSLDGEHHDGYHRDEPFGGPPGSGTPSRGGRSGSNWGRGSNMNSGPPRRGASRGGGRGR
Outline: (§1)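 HEK293-FT lysate (2.5 mg protein/well) was pre-incubated 1 h at 4°C with free RNA oligos (0 nM to 30 μM), then 30 min at 4°C with the same 5′-amino-C6 oligos coupled to NHS-Sepharose beads. Bound proteins were quantified by label-free LC-MS/MS in three biological replicates and two independent experiments, and normalised to the water control. EC50 came from a four-parameter log-logistic fit; Kd is EC50 times a protein-dependent depletion factor.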

[2] = target: XRN1 (UniProt Q8IZH2)
Outline: as §1

[3] = target: T2, ZFP36L2 (UniProt P47974)
T2 sequence: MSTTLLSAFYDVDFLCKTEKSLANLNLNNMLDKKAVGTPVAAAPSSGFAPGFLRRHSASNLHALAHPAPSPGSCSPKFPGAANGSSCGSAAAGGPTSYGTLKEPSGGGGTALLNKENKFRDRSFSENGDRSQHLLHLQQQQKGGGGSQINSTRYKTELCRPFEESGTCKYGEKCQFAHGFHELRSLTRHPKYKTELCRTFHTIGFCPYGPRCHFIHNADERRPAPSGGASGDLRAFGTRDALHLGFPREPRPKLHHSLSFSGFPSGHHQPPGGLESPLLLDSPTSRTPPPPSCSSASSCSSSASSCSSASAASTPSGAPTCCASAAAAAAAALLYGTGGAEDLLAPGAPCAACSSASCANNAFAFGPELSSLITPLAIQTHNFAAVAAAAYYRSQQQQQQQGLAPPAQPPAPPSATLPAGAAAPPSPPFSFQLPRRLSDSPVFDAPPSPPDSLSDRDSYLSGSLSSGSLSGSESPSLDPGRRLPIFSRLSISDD
Outline: as §1

[4] = target: SRSF9 (UniProt Q13242)
Outline: as §1

Sequence of SRSF9 (Q13242 whole entry): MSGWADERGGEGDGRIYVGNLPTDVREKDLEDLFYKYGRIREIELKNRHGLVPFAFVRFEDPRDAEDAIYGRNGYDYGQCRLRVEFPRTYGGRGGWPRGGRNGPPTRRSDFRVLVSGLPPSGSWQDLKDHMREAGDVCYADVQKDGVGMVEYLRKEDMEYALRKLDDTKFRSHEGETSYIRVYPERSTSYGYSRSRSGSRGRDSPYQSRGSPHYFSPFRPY
Sequence of XRN1 (Q8IZH2 whole entry): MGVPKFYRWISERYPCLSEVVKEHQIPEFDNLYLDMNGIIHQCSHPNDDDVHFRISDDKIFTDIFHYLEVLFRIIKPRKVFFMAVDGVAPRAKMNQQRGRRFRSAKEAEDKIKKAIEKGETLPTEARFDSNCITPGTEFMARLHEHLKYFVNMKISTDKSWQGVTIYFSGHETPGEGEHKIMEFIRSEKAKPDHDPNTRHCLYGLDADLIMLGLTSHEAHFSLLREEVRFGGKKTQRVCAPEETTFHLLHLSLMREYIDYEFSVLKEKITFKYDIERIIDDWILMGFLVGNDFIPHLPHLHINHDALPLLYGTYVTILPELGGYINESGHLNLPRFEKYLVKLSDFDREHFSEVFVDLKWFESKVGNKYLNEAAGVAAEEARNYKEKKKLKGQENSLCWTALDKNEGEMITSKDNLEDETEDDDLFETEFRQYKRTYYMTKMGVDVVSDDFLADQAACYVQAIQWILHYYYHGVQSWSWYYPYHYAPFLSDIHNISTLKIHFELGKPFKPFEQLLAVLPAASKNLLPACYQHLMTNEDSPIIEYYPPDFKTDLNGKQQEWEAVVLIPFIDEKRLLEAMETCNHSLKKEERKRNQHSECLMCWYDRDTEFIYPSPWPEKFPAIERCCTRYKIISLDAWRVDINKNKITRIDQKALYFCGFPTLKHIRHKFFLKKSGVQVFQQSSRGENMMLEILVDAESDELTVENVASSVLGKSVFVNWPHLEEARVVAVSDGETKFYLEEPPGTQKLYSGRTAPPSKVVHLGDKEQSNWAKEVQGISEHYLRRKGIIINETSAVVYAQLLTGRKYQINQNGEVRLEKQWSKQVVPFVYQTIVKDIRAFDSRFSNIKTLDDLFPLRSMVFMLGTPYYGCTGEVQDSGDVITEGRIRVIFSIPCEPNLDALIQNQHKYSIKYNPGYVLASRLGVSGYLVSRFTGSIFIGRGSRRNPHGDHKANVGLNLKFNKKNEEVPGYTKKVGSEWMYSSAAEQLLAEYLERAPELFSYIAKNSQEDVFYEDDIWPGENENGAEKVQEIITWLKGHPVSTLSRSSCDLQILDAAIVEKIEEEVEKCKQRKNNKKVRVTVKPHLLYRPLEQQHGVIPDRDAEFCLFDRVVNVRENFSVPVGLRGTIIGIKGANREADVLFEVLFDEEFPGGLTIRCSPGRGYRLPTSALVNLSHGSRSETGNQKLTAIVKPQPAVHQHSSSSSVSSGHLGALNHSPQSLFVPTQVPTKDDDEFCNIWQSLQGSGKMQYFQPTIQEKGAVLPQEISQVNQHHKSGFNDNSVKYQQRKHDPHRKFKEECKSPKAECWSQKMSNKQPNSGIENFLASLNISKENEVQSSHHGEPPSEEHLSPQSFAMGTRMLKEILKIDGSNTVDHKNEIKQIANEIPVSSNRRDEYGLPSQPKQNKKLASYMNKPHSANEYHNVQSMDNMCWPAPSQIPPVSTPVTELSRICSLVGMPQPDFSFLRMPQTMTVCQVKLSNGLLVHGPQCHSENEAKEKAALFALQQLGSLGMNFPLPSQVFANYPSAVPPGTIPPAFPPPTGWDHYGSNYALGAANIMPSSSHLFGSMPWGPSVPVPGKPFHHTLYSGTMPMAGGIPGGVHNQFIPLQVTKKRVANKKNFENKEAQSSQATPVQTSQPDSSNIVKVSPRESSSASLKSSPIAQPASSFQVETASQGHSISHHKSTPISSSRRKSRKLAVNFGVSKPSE

| Sequence | Kd [1] [nM] | Kd [2] [nM] | Kd [3] [nM] | Kd [4] [nM] |
| --- | --- | --- | --- | --- |
| AAUAAA | 5.98 | 197 | 357 |  |
| CUGUCCU |  |  |  | 2230 |
| UAUUUAU | 338 | 106 | 11.1 | 5920 |
